*1 amine or outer side, *2 acyl side, *3 side chain or, on linkers, in order; H or OH if unused. Where no end group is shown, it is not given here. Side-chain parts run from the residue outwards. [ ]: non-standard residue; d: D form. The star is where a group is joined. γGlu = O=C(O)[C@H](CCC(=O)[*:2])N[*:1]; Palmitoyl = CCCCCCCCCCCCCCCC(=O)*; Ac4c = NC1(C(=O)O)CCC1
B1: Co-agonist Peptide 8 (peptide)
peptide: H[dS]QGTFTSDK([γGlu-γGlu-Palmitoyl])SKYLEARAAQDFVQWLLDT-NH2
modifications: N-terminus assumed
SMILES: CCCCCCCCCCCCCCCC(=O)N[C@@H](CCC(=O)N[C@@H](CCC(=O)NCCCC[C@H](NC(=O)[C@H](CC(=O)O)NC(=O)[C@H](CO)NC(=O)[C@@H](NC(=O)[C@H](Cc1ccccc1)NC(=O)[C@@H](NC(=O)CNC(=O)[C@H](CCC(N)=O)NC(=O)[C@@H](CO)NC(=O)[C@@H](N)Cc1c[nH]cn1)[C@@H](C)O)[C@@H](C)O)C(=O)N[C@@H](CO)C(=O)N[C@@H](CCCCN)C(=O)N[C@@H](Cc1ccc(O)cc1)C(=O)N[C@@H](CC(C)C)C(=O)N[C@@H](CCC(=O)O)C(=O)N[C@@H](C)C(=O)N[C@@H](CCCNC(=N)N)C(=O)N[C@@H](C)C(=O)N[C@@H](C)C(=O)N[C@@H](CCC(N)=O)C(=O)N[C@@H](CC(=O)O)C(=O)N[C@@H](Cc1ccccc1)C(=O)N[C@H](C(=O)N[C@@H](CCC(N)=O)C(=O)N[C@@H](Cc1c[nH]c2ccccc12)C(=O)N[C@@H](CC(C)C)C(=O)N[C@@H](CC(C)C)C(=O)N[C@@H](CC(=O)O)C(=O)N[C@H](C(N)=O)[C@@H](C)O)C(C)C)C(=O)O)C(=O)O
B2: Comparator Co-agonist Peptide 6 (peptide)
peptide: HXQGTFTSDKSKYLDERAAQDFVQWLLDT
modifications: X2 = D-Ser; K10 conjugated to γEγEC16; C-terminal amide
B3: Co-agonist Peptide 10 (peptide)
peptide: HXQGTFTSDKSKYLDERAAQDFVQWLXDT
modifications: X2 = D-Ser; K10 conjugated to γEγEC16; X27 = methionine sulfone; C-terminal amide
B4: Co-agonist Peptide 1 (peptide)
peptide: H[dS]QGTFTSDK([γGlu-Palmitoyl])SKYLDARAAQDFVQWLLDT-NH2
modifications: N-terminus assumed
SMILES: CCCCCCCCCCCCCCCC(=O)N[C@@H](CCC(=O)NCCCC[C@H](NC(=O)[C@H](CC(=O)O)NC(=O)[C@H](CO)NC(=O)[C@@H](NC(=O)[C@H](Cc1ccccc1)NC(=O)[C@@H](NC(=O)CNC(=O)[C@H](CCC(N)=O)NC(=O)[C@@H](CO)NC(=O)[C@@H](N)Cc1c[nH]cn1)[C@@H](C)O)[C@@H](C)O)C(=O)N[C@@H](CO)C(=O)N[C@@H](CCCCN)C(=O)N[C@@H](Cc1ccc(O)cc1)C(=O)N[C@@H](CC(C)C)C(=O)N[C@@H](CC(=O)O)C(=O)N[C@@H](C)C(=O)N[C@@H](CCCNC(=N)N)C(=O)N[C@@H](C)C(=O)N[C@@H](C)C(=O)N[C@@H](CCC(N)=O)C(=O)N[C@@H](CC(=O)O)C(=O)N[C@@H](Cc1ccccc1)C(=O)N[C@H](C(=O)N[C@@H](CCC(N)=O)C(=O)N[C@@H](Cc1c[nH]c2ccccc12)C(=O)N[C@@H](CC(C)C)C(=O)N[C@@H](CC(C)C)C(=O)N[C@@H](CC(=O)O)C(=O)N[C@H](C(N)=O)[C@@H](C)O)C(C)C)C(=O)O
B5: Co-agonist Peptide 13 (peptide)
peptide: H[Ac4c]QGTFTSDK([γGlu-γGlu-Palmitoyl])SKYLDERAAQDFVQWLLDT-NH2
modifications: N-terminus assumed
SMILES: CCCCCCCCCCCCCCCC(=O)N[C@@H](CCC(=O)N[C@@H](CCC(=O)NCCCC[C@H](NC(=O)[C@H](CC(=O)O)NC(=O)[C@H](CO)NC(=O)[C@@H](NC(=O)[C@H](Cc1ccccc1)NC(=O)[C@@H](NC(=O)CNC(=O)[C@H](CCC(N)=O)NC(=O)C1(NC(=O)[C@@H](N)Cc2c[nH]cn2)CCC1)[C@@H](C)O)[C@@H](C)O)C(=O)N[C@@H](CO)C(=O)N[C@@H](CCCCN)C(=O)N[C@@H](Cc1ccc(O)cc1)C(=O)N[C@@H](CC(C)C)C(=O)N[C@@H](CC(=O)O)C(=O)N[C@@H](CCC(=O)O)C(=O)N[C@@H](CCCNC(=N)N)C(=O)N[C@@H](C)C(=O)N[C@@H](C)C(=O)N[C@@H](CCC(N)=O)C(=O)N[C@@H](CC(=O)O)C(=O)N[C@@H](Cc1ccccc1)C(=O)N[C@H](C(=O)N[C@@H](CCC(N)=O)C(=O)N[C@@H](Cc1c[nH]c2ccccc12)C(=O)N[C@@H](CC(C)C)C(=O)N[C@@H](CC(C)C)C(=O)N[C@@H](CC(=O)O)C(=O)N[C@H](C(N)=O)[C@@H](C)O)C(C)C)C(=O)O)C(=O)O
B6: Co-agonist Peptide 14 (peptide)
peptide: HXQGTXTSDKSKYLDERAAQDFVQWLLDT
modifications: not fully specified; X2 = D-Ser; X6 = threo-β-Phenylserine (tβP); K10 conjugated to γEγEC16; C-terminal amide
B7: Co-agonist Peptide 9 (peptide)
peptide: HXQGTXTSDKSKYLDERAAQDFVQWLLDT
modifications: X2 = D-Ser; X6 = p-fluoro phenylalanine (pFF); K10 conjugated to γEγEC16; C-terminal amide
B8: Co-agonist Peptide 2 (peptide)
peptide: H[dS]QGTFTSDK([γGlu-γGlu-Palmitoyl])SKYLDVRRAQDFVQWLLDT-NH2
modifications: not fully specified; printed as HsQGTFTSDK(γEγEC16)SKYLDVRRAQDFVQWLLDT-NH2
B9: Co-agonist Peptide 3 (peptide)
peptide: H[dS]QGTFTSDK([γGlu-γGlu-Palmitoyl])SKYLDVRAAQDFVQWLLDT-NH2
modifications: N-terminus assumed
SMILES: CCCCCCCCCCCCCCCC(=O)N[C@@H](CCC(=O)N[C@@H](CCC(=O)NCCCC[C@H](NC(=O)[C@H](CC(=O)O)NC(=O)[C@H](CO)NC(=O)[C@@H](NC(=O)[C@H](Cc1ccccc1)NC(=O)[C@@H](NC(=O)CNC(=O)[C@H](CCC(N)=O)NC(=O)[C@@H](CO)NC(=O)[C@@H](N)Cc1c[nH]cn1)[C@@H](C)O)[C@@H](C)O)C(=O)N[C@@H](CO)C(=O)N[C@@H](CCCCN)C(=O)N[C@@H](Cc1ccc(O)cc1)C(=O)N[C@@H](CC(C)C)C(=O)N[C@@H](CC(=O)O)C(=O)N[C@H](C(=O)N[C@@H](CCCNC(=N)N)C(=O)N[C@@H](C)C(=O)N[C@@H](C)C(=O)N[C@@H](CCC(N)=O)C(=O)N[C@@H](CC(=O)O)C(=O)N[C@@H](Cc1ccccc1)C(=O)N[C@H](C(=O)N[C@@H](CCC(N)=O)C(=O)N[C@@H](Cc1c[nH]c2ccccc12)C(=O)N[C@@H](CC(C)C)C(=O)N[C@@H](CC(C)C)C(=O)N[C@@H](CC(=O)O)C(=O)N[C@H](C(N)=O)[C@@H](C)O)C(C)C)C(C)C)C(=O)O)C(=O)O
B10: Co-agonist Peptide 5 (peptide)
peptide: H[dS]QGTFTSDK([γGlu-γGlu-Palmitoyl])SKYLDARAAQDFVQWLLDT-NH2
modifications: N-terminus assumed
SMILES: CCCCCCCCCCCCCCCC(=O)N[C@@H](CCC(=O)N[C@@H](CCC(=O)NCCCC[C@H](NC(=O)[C@H](CC(=O)O)NC(=O)[C@H](CO)NC(=O)[C@@H](NC(=O)[C@H](Cc1ccccc1)NC(=O)[C@@H](NC(=O)CNC(=O)[C@H](CCC(N)=O)NC(=O)[C@@H](CO)NC(=O)[C@@H](N)Cc1c[nH]cn1)[C@@H](C)O)[C@@H](C)O)C(=O)N[C@@H](CO)C(=O)N[C@@H](CCCCN)C(=O)N[C@@H](Cc1ccc(O)cc1)C(=O)N[C@@H](CC(C)C)C(=O)N[C@@H](CC(=O)O)C(=O)N[C@@H](C)C(=O)N[C@@H](CCCNC(=N)N)C(=O)N[C@@H](C)C(=O)N[C@@H](C)C(=O)N[C@@H](CCC(N)=O)C(=O)N[C@@H](CC(=O)O)C(=O)N[C@@H](Cc1ccccc1)C(=O)N[C@H](C(=O)N[C@@H](CCC(N)=O)C(=O)N[C@@H](Cc1c[nH]c2ccccc12)C(=O)N[C@@H](CC(C)C)C(=O)N[C@@H](CC(C)C)C(=O)N[C@@H](CC(=O)O)C(=O)N[C@H](C(N)=O)[C@@H](C)O)C(C)C)C(=O)O)C(=O)O
B11: Co-agonist Peptide 7 (peptide)
peptide: Ac-HAQGTFTSDK([γGlu-γGlu-C16])SKYLDERAAQDFVQWLLDT-NH2
B12: Co-agonist Peptide 11 (peptide)
peptide: H[dS]QGTFTSDK([γGlu-γGlu-Palmitoyl])SLYLDERAAQDFVQWLLDT-NH2
modifications: N-terminus assumed
SMILES: CCCCCCCCCCCCCCCC(=O)N[C@@H](CCC(=O)N[C@@H](CCC(=O)NCCCC[C@H](NC(=O)[C@H](CC(=O)O)NC(=O)[C@H](CO)NC(=O)[C@@H](NC(=O)[C@H](Cc1ccccc1)NC(=O)[C@@H](NC(=O)CNC(=O)[C@H](CCC(N)=O)NC(=O)[C@@H](CO)NC(=O)[C@@H](N)Cc1c[nH]cn1)[C@@H](C)O)[C@@H](C)O)C(=O)N[C@@H](CO)C(=O)N[C@@H](CC(C)C)C(=O)N[C@@H](Cc1ccc(O)cc1)C(=O)N[C@@H](CC(C)C)C(=O)N[C@@H](CC(=O)O)C(=O)N[C@@H](CCC(=O)O)C(=O)N[C@@H](CCCNC(=N)N)C(=O)N[C@@H](C)C(=O)N[C@@H](C)C(=O)N[C@@H](CCC(N)=O)C(=O)N[C@@H](CC(=O)O)C(=O)N[C@@H](Cc1ccccc1)C(=O)N[C@H](C(=O)N[C@@H](CCC(N)=O)C(=O)N[C@@H](Cc1c[nH]c2ccccc12)C(=O)N[C@@H](CC(C)C)C(=O)N[C@@H](CC(C)C)C(=O)N[C@@H](CC(=O)O)C(=O)N[C@H](C(N)=O)[C@@H](C)O)C(C)C)C(=O)O)C(=O)O
B13: Co-agonist Peptide 12 (peptide)
peptide: HXQGTFTSDXSKYLDARAAQDFVQWLLDT
modifications: X2 = D-Ser; X10 = para-aminomethyl phenylalanine (pAF) conjugated to γEγEC16; C-terminal amide

target: human glucagon-like peptide 1 receptor (human, UniProt P43220 24-463); experiment: cell-based or functional assay

| Binder | GLPR1 EC50 (nM) human; cAMP production (HitHunter cAMP XS) in cells expressing human GLP-1R, 20% human serum [nM] |
| --- | --- |
| B1 | 0.02 |
| B2 | 0.007 |
| B3 | 0.02 |
| B4 | 0.048 |
| B5 | 0.05 |
| B6 | 1.02 |
| B7 | 0.06 |
| B8 | 0.16 |
| B9 | 0.13 |
| B10 | 0.033 |
| B11 | 0.07 |
| B12 | 0.06 |
| B13 | 0.05 |

target: human glucagon receptor (human, UniProt P47871 26-477); experiment: cell-based or functional assay
Sequence (P47871 26-477): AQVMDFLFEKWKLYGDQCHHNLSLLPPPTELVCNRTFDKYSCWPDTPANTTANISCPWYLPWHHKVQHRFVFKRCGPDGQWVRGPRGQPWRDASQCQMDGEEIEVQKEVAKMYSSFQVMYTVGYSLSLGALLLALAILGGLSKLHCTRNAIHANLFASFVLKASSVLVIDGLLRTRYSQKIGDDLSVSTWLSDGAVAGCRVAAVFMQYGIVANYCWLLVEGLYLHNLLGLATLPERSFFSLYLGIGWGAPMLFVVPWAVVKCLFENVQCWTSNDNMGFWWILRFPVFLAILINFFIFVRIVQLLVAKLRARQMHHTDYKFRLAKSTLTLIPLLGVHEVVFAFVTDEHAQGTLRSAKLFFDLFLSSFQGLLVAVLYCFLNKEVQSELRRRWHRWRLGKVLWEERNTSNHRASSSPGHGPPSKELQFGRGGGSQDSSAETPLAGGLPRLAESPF

| Binder | GCGR EC50 (nM) human; cAMP production (HitHunter cAMP XS) in cells expressing human GCGR, 20% human serum [nM] |
| --- | --- |
| B1 | 0.02 |
| B2 | 0.009 |
| B3 | 0.02 |
| B4 | 0.042 |
| B5 | 0.06 |
| B6 | 1.04 |
| B7 | 0.05 |
| B8 | 0.041 |
| B9 | 0.08 |
| B10 | 0.03 |
| B11 | 0.07 |
| B12 | 0.06 |
| B13 | 0.05 |
